# Experimental data as given in patent publication US20230110994A1, “CONJUGATES UNDERGOING INTRAMOLECULAR REARRANGEMENTS” (Ascendis Pharma A/S, priority 2020, published 2023).
# Test: Plasma pharmacokinetics of HHC^MET in Wistar rats (sandwich ELISA)
# Format: in vivo
# Conditions: n = 3
# Procedure: This study was performed in order to investigate the plasma pharmacokinetics of HHC^MET in Wistar rats following subcutaneous and intramuscular administration of transient HHC^MET-linker hydrogel prodrug 32 or following subcutaneous or intravenous administration of free HHC^MET. Animals (n=3 per group) received either a single SC injection in the neck region or a single IM injection in the thigh musculature of a formulation of 32 (10 mg/kg HHC^MET equivalents) or a single SC injection in the neck region or IV injection in the tail vein of an HHC^MET formulation (10 mg/kg HHC^MET). At selected time points, 200 μL blood were collected in Li-Heparin tubes and processed to plasma by centrifugation at 3,000 g for 10 minutes at 4° C. HHC^MET concentrations in rat plasma were determined with an in-house developed sandwich ELISA setup. For capturing HHC^MET, a human CTLA-4 (AA Ala37-Ser160)-Fc Tag fusion protein (Supplier AcroBiosystem, Newark, Del.; USA, catalog no. CT4-H5255) was coated to the ELISA plate wells and read-out was performed via a rabbit anti-camelid VHH antibody conjugated with horseradish peroxidase (supplier Genscript, Piscataway, N.J., USA, catalog no. A01861-200).
# Calibration standards of HHC^MET in blank plasma were prepared as follows: thawed Li-Heparin Wistar rat plasma was homogenized. The free HHC^MET formulation was spiked into blank plasma at concentrations between 96.0 ng/mL and 3.00 ng/mL with additional higher and lower anchor points. These solutions were used for the generation of a calibration curve. Calibration curves were analyzed via a 4-parameter […] fit and 1/Y weighted. Calibration curves were confirmed via separately prepared quality control standards at 10, 40 and 80 ng/mL.
molecule,measurement,setting,value
"HHC^MET: custom made protein of SEQ ID NO:1, expressed from E. coli (protein, nanobody) EVQLVESGGGLVQAGGSLRLSCAASGGTFSFYGMGWFRQAPGKEQEFVADIRTSAGRTYYADSVKGRFTISRDNAKNTVYLQMNSLKPEDTAVYYCAAEMSGISGWDYWGQGTQVTVSSGGGGSGGGSEVQLVESGGGLVQAGGSLRLSCAASGGTFSFYGMGWFRQAPGKEQEFVADIRTSAGRTYYADSVKGRFTISRDNAKNTVYLQMNSLKPEDTAVYYCAAEMSGISGWDYWGQGTQVTVSS",mean HHC^MET concentration in plasma,"intravenous, 10 mg/kg, 0.25 h",17400 ng/mL
same,mean HHC^MET concentration in plasma,"intravenous, 10 mg/kg, 1 h",3530 ng/mL
same,mean HHC^MET concentration in plasma,"intravenous, 10 mg/kg, 4 h",1720 ng/mL
same,mean HHC^MET concentration in plasma,"intravenous, 10 mg/kg, 24 h",8.27 ng/mL
same,mean HHC^MET concentration in plasma,"intravenous, 10 mg/kg, 32 h",<LLOQ
same,mean HHC^MET concentration in plasma,"intravenous, 10 mg/kg, 48 h",<LLOQ
same,mean HHC^MET concentration in plasma,"intravenous, 10 mg/kg, 72 h",1.15 ng/mL
same,mean HHC^MET concentration in plasma,"intravenous, 10 mg/kg, 96 h",<LLOQ
same,mean HHC^MET concentration in plasma,"intravenous, 10 mg/kg, 168 h",<LLOQ
same,mean HHC^MET concentration in plasma,"subcutaneous, 10 mg/kg HHC^MET (equivalents), 0.25 h",2540 ng/mL
same,mean HHC^MET concentration in plasma,"subcutaneous, 10 mg/kg HHC^MET (equivalents), 1 h",5090 ng/mL
same,mean HHC^MET concentration in plasma,"subcutaneous, 10 mg/kg HHC^MET (equivalents), 4 h",2280 ng/mL
same,mean HHC^MET concentration in plasma,"subcutaneous, 10 mg/kg HHC^MET (equivalents), 24 h",2.60 ng/mL
same,mean HHC^MET concentration in plasma,"subcutaneous, 10 mg/kg HHC^MET (equivalents), 32 h",<LLOQ
same,mean HHC^MET concentration in plasma,"subcutaneous, 10 mg/kg HHC^MET (equivalents), 48 h",<LLOQ
same,mean HHC^MET concentration in plasma,"subcutaneous, 10 mg/kg HHC^MET (equivalents), 72 h",2.07 ng/mL
same,mean HHC^MET concentration in plasma,"subcutaneous, 10 mg/kg HHC^MET (equivalents), 96 h",<LLOQ
same,mean HHC^MET concentration in plasma,"subcutaneous, 10 mg/kg HHC^MET (equivalents), 168 h",<LLOQ
